# Biological target: C4BPα1-2, a fragment of human C4b-binding protein (C4BP) (human)
# Assay: ITC
row,Substance,Kd [µM]
1,"M2G (M2_(53)G), M2 aa 53-86 fused at its C-terminus to a GCN4 coiled-coil sequence",4
2,"Intact M2 protein (mature form), Streptococcus pyogenes strain AP2 (natural protein)",4

# Source: doi:10.1101/2021.12.07.471543
